This passage reports smFRET donor fluorescence lifetime of WT EGFR in nanodiscs (both bilayers) with 1 μM epigen; peak of the distribution results from paper PMC9259572.

The experiment deals with full-length epidermal growth factor receptor (EGFR) with a SNAP tag at the C-terminal position, embedded in a lipid bilayer nanodisc (UniProt P00533).

B1: Human epigen (ligand)
chain: AAVTVTPPITAQQGNWTVNKTEADNIEGPIALKFSHLCLEDHNSYCINGACAFHHELEKAICRCFTGYTGERCEHLTLTSYAVDSYEKYIAIGIGVGLLLSGFLVIFYCYIRKRCLKLKSPYNVCSGERRPL
The molecule B1 yielded a smFRET donor fluorescence lifetime of WT EGFR in nanodiscs (both bilayers) with 1 μM epigen; peak of the distribution of 1.5 ns.
